# Test results reported in article PMC12850475.
# How the values were obtained:
# [1] = molecular target: Protein A (SpA) (UniProt P38507); assay: SPR; Protein A amine-coupled to a CM5 chip (channel 2, 122 RU); antibodies eluted by pH (50 mM sodium acetate pH 3.0) as analyte at 12.5 and 25 µg/mL in HBS-P; qualitative; percent able to bind calculated from a standard curve; triplicate
# [2] = molecular target: Protein A (SpA) (UniProt P38507); assay: SPR
substance,measurement,setting,value
human Immunoglobulin G purified from human blood plasma (antibody),percentage of antibody still able to bind,[1],46.7%
same,percentage of antibody still able to bind,[2],74.8%
